B1: A105S (designed binder)
chain: SMEEEVEKAAKEYEKKKKEAIEKHLEKLKAKDKEAAERFLKELEEAAKEYAKDEAKTMSEEEAKRRAKKYKEKVLLSELSEEEQKEIKEAEEKLVRTILKYVEESAK
B2: K48T (designed binder)
chain: SMEEEVEKAAKEYEKKKKEAIEKHLEKLKAKDKEAAERFLKELEEAATEYAKDEAKTMSEEEAKRRAKKYKEKVLLSELSEEEQKEIKEAEEKLVRTILKYVEEAAK
B3: L99G (designed binder)
chain: SMEEEVEKAAKEYEKKKKEAIEKHLEKLKAKDKEAAERFLKELEEAAKEYAKDEAKTMSEEEAKRRAKKYKEKVLLSELSEEEQKEIKEAEEKLVRTIGKYVEEAAK
B4: K68Q (designed binder)
chain: SMEEEVEKAAKEYEKKKKEAIEKHLEKLKAKDKEAAERFLKELEEAAKEYAKDEAKTMSEEEAKRRAQKYKEKVLLSELSEEEQKEIKEAEEKLVRTILKYVEEAAK
B5: E54P (designed binder)
chain: SMEEEVEKAAKEYEKKKKEAIEKHLEKLKAKDKEAAERFLKELEEAAKEYAKDPAKTMSEEEAKRRAKKYKEKVLLSELSEEEQKEIKEAEEKLVRTILKYVEEAAK
B6: K11R (designed binder)
chain: SMEEEVEKAAREYEKKKKEAIEKHLEKLKAKDKEAAERFLKELEEAAKEYAKDEAKTMSEEEAKRRAKKYKEKVLLSELSEEEQKEIKEAEEKLVRTILKYVEEAAK
B7: K33S (designed binder)
chain: SMEEEVEKAAKEYEKKKKEAIEKHLEKLKAKDSEAAERFLKELEEAAKEYAKDEAKTMSEEEAKRRAKKYKEKVLLSELSEEEQKEIKEAEEKLVRTILKYVEEAAK
B8: Q84Y (designed binder)
chain: SMEEEVEKAAKEYEKKKKEAIEKHLEKLKAKDKEAAERFLKELEEAAKEYAKDEAKTMSEEEAKRRAKKYKEKVLLSELSEEEYKEIKEAEEKLVRTILKYVEEAAK
B9: Y101H (designed binder)
chain: SMEEEVEKAAKEYEKKKKEAIEKHLEKLKAKDKEAAERFLKELEEAAKEYAKDEAKTMSEEEAKRRAKKYKEKVLLSELSEEEQKEIKEAEEKLVRTILKHVEEAAK
B10: K85S (designed binder)
chain: SMEEEVEKAAKEYEKKKKEAIEKHLEKLKAKDKEAAERFLKELEEAAKEYAKDEAKTMSEEEAKRRAKKYKEKVLLSELSEEEQSEIKEAEEKLVRTILKYVEEAAK
B11: K29A (designed binder)
chain: SMEEEVEKAAKEYEKKKKEAIEKHLEKLAAKDKEAAERFLKELEEAAKEYAKDEAKTMSEEEAKRRAKKYKEKVLLSELSEEEQKEIKEAEEKLVRTILKYVEEAAK
B12: A20Q (designed binder)
chain: SMEEEVEKAAKEYEKKKKEQIEKHLEKLKAKDKEAAERFLKELEEAAKEYAKDEAKTMSEEEAKRRAKKYKEKVLLSELSEEEQKEIKEAEEKLVRTILKYVEEAAK
B13: K29H (designed binder)
chain: SMEEEVEKAAKEYEKKKKEAIEKHLEKLHAKDKEAAERFLKELEEAAKEYAKDEAKTMSEEEAKRRAKKYKEKVLLSELSEEEQKEIKEAEEKLVRTILKYVEEAAK
B14: Y101W (designed binder)
chain: SMEEEVEKAAKEYEKKKKEAIEKHLEKLKAKDKEAAERFLKELEEAAKEYAKDEAKTMSEEEAKRRAKKYKEKVLLSELSEEEQKEIKEAEEKLVRTILKWVEEAAK
B15: K8A (designed binder)
chain: SMEEEVEAAAKEYEKKKKEAIEKHLEKLKAKDKEAAERFLKELEEAAKEYAKDEAKTMSEEEAKRRAKKYKEKVLLSELSEEEQKEIKEAEEKLVRTILKYVEEAAK
B16: K107L (designed binder)
chain: SMEEEVEKAAKEYEKKKKEAIEKHLEKLKAKDKEAAERFLKELEEAAKEYAKDEAKTMSEEEAKRRAKKYKEKVLLSELSEEEQKEIKEAEEKLVRTILKYVEEAAL
B17: E7G (designed binder)
chain: SMEEEVGKAAKEYEKKKKEAIEKHLEKLKAKDKEAAERFLKELEEAAKEYAKDEAKTMSEEEAKRRAKKYKEKVLLSELSEEEQKEIKEAEEKLVRTILKYVEEAAK
B18: K100T (designed binder)
chain: SMEEEVEKAAKEYEKKKKEAIEKHLEKLKAKDKEAAERFLKELEEAAKEYAKDEAKTMSEEEAKRRAKKYKEKVLLSELSEEEQKEIKEAEEKLVRTILTYVEEAAK
B19: A47T (designed binder)
chain: SMEEEVEKAAKEYEKKKKEAIEKHLEKLKAKDKEAAERFLKELEEATKEYAKDEAKTMSEEEAKRRAKKYKEKVLLSELSEEEQKEIKEAEEKLVRTILKYVEEAAK
B20: A47W (designed binder)
chain: SMEEEVEKAAKEYEKKKKEAIEKHLEKLKAKDKEAAERFLKELEEAWKEYAKDEAKTMSEEEAKRRAKKYKEKVLLSELSEEEQKEIKEAEEKLVRTILKYVEEAAK
B21: A9P (designed binder)
chain: SMEEEVEKPAKEYEKKKKEAIEKHLEKLKAKDKEAAERFLKELEEAAKEYAKDEAKTMSEEEAKRRAKKYKEKVLLSELSEEEQKEIKEAEEKLVRTILKYVEEAAK
B22: E12I (designed binder)
chain: SMEEEVEKAAKIYEKKKKEAIEKHLEKLKAKDKEAAERFLKELEEAAKEYAKDEAKTMSEEEAKRRAKKYKEKVLLSELSEEEQKEIKEAEEKLVRTILKYVEEAAK
B23: E37Q (designed binder)
chain: SMEEEVEKAAKEYEKKKKEAIEKHLEKLKAKDKEAAQRFLKELEEAAKEYAKDEAKTMSEEEAKRRAKKYKEKVLLSELSEEEQKEIKEAEEKLVRTILKYVEEAAK
B24: K93T (designed binder)
chain: SMEEEVEKAAKEYEKKKKEAIEKHLEKLKAKDKEAAERFLKELEEAAKEYAKDEAKTMSEEEAKRRAKKYKEKVLLSELSEEEQKEIKEAEETLVRTILKYVEEAAK
B25: A47I (designed binder)
chain: SMEEEVEKAAKEYEKKKKEAIEKHLEKLKAKDKEAAERFLKELEEAIKEYAKDEAKTMSEEEAKRRAKKYKEKVLLSELSEEEQKEIKEAEEKLVRTILKYVEEAAK
B26: K73V (designed binder)
chain: SMEEEVEKAAKEYEKKKKEAIEKHLEKLKAKDKEAAERFLKELEEAAKEYAKDEAKTMSEEEAKRRAKKYKEVVLLSELSEEEQKEIKEAEEKLVRTILKYVEEAAK
B27: E7K (designed binder)
chain: SMEEEVKKAAKEYEKKKKEAIEKHLEKLKAKDKEAAERFLKELEEAAKEYAKDEAKTMSEEEAKRRAKKYKEKVLLSELSEEEQKEIKEAEEKLVRTILKYVEEAAK
B28: K107I (designed binder)
chain: SMEEEVEKAAKEYEKKKKEAIEKHLEKLKAKDKEAAERFLKELEEAAKEYAKDEAKTMSEEEAKRRAKKYKEKVLLSELSEEEQKEIKEAEEKLVRTILKYVEEAAI
B29: K18V (designed binder)
chain: SMEEEVEKAAKEYEKKKVEAIEKHLEKLKAKDKEAAERFLKELEEAAKEYAKDEAKTMSEEEAKRRAKKYKEKVLLSELSEEEQKEIKEAEEKLVRTILKYVEEAAK
B30: K52F (designed binder)
chain: SMEEEVEKAAKEYEKKKKEAIEKHLEKLKAKDKEAAERFLKELEEAAKEYAFDEAKTMSEEEAKRRAKKYKEKVLLSELSEEEQKEIKEAEEKLVRTILKYVEEAAK
B31: A10D (designed binder)
chain: SMEEEVEKADKEYEKKKKEAIEKHLEKLKAKDKEAAERFLKELEEAAKEYAKDEAKTMSEEEAKRRAKKYKEKVLLSELSEEEQKEIKEAEEKLVRTILKYVEEAAK
B32: Q84W (designed binder)
chain: SMEEEVEKAAKEYEKKKKEAIEKHLEKLKAKDKEAAERFLKELEEAAKEYAKDEAKTMSEEEAKRRAKKYKEKVLLSELSEEEWKEIKEAEEKLVRTILKYVEEAAK
B33: D32S (designed binder)
chain: SMEEEVEKAAKEYEKKKKEAIEKHLEKLKAKSKEAAERFLKELEEAAKEYAKDEAKTMSEEEAKRRAKKYKEKVLLSELSEEEQKEIKEAEEKLVRTILKYVEEAAK
B34: S59H (designed binder)
chain: SMEEEVEKAAKEYEKKKKEAIEKHLEKLKAKDKEAAERFLKELEEAAKEYAKDEAKTMHEEEAKRRAKKYKEKVLLSELSEEEQKEIKEAEEKLVRTILKYVEEAAK
B35: A10L (designed binder)
chain: SMEEEVEKALKEYEKKKKEAIEKHLEKLKAKDKEAAERFLKELEEAAKEYAKDEAKTMSEEEAKRRAKKYKEKVLLSELSEEEQKEIKEAEEKLVRTILKYVEEAAK

Biological target: T1, TNFR1 (Homo sapiens, UniProt P19438)
T1 chain: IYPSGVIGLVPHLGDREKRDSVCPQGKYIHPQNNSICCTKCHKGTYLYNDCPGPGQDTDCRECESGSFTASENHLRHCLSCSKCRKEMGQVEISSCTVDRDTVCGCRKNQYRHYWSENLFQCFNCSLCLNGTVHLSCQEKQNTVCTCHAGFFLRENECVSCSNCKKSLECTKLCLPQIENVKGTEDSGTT
Assay: yeast display SC50

Binder	apparent Kd (screen) [pM]
B1	956
B2	490
B3	5310
B4	653
B5	7070
B6	593
B7	869
B8	13800
B9	490
B10	593
B11	446
B12	1690
B13	593
B14	2730
B15	593
B16	2730
B17	3000
B18	869

Binder	apparent Kd (screen) [pM]
B19	653
B20	3000
B21	13800
B22	1050
B23	539
B24	869
B25	490
B26	10400
B27	4390
B28	1860
B29	1270
B30	1050
B31	490
B32	12500
B33	446
B34	593
B35	956
